# Experimental data published in patent US20180215829A1 (published 2018).
# Residue numbers refer to the chain shown, from its start.
# B1: VH clone 2.1 (VHH)
# VHH: QVQLVQSGAEVKKPGASVKVSCKASGYPFTSYDINWVRQATGQSLEWMGWMNPNSGDTVYAQKFQGRVTMTRNTSISTAYMELSSLRSEDTAVYFCARGRRDDWKNNYWGQGTLVTVSS
# B2: VH clone 1.2 (VHH)
# VHH: EVQLVESGGGLVQPGRSLRLSCAASGFTFDDYAMHWVRQAPGKGLEWVSGISWNSGRMDYADSVKGRFTISRDNAKNSLYLQMNSLRAEDTALYYCAKEKGLGYCRGGSCSYFDYRGQGTLVTVSS
# B3: VH clone 1.1 (VHH)
# VHH: B2 VHH with E1Q, N77K, L93M, Y104F
# Biological target: recombinant human IL-17RA Fc fusion protein (R&D Systems 177-IR-100) (UniProt Q96F46 33-320)
# Sequence (Q96F46 33-320): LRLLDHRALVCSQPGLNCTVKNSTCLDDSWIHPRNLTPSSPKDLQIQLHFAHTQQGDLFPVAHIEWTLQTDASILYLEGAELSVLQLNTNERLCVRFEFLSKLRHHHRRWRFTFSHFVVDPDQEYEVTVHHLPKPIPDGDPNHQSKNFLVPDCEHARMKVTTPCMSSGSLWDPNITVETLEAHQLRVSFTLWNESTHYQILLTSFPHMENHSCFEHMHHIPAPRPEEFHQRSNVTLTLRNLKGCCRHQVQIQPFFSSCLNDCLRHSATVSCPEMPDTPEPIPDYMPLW
# Assay: BIAcore
row,koff,Binder
1,0.00384 s⁻¹,B1
2,5.79e-05 s⁻¹,B2
3,5.83e-05 s⁻¹,B3
